# In US20130177981A1 (WISCONSIN ALUMNI RESEARCH FOUNDATION, published 2013):
# Where two headings read alike, the source gives them in different places. Where no end group is shown, it is not given here. [ ]: non-standard residue; d: D form. APC = trans-3-aminopyrrolidine-4-carboxylic acid; ACPC = trans-2-aminocyclopentanecarboxylic acid; β3hR = N=C(N)NCCC[C@H](N)CC(=O)O; β3hT = C[C@@H](O)[C@H](N)CC(=O)O; β3hE = N[C@@H](CCC(=O)O)CC(=O)O; β3hA = C[C@H](N)CC(=O)O
# Legend:
# gp41-5 [1] = target: T1, gp41-5 (HIV); assay: competition FP; displacement of Flu-C38 from gp41-5
# T1 construct: also called gp41-5 protein construct; five-helix bundle protein
# gp41-5 [2] = target: T1, gp41-5; assay: competition FP on gp41-5
# gp41-5 [3] = target: T1, gp41-5; assay: competition FP; displacement of Flu-C38 from gp41-5; remark: listed apart in the source
# gp41-5 [4] = target: T1, gp41-5; assay: as above; remark: listed apart in the source
# [5] = target: T2, gp41 of the envelope glycoprotein of the HIV-1 clone HxB2 (HIV-1 clone HxB2, UniProt P04578 33-856); assay: cell-based or functional assay
# [6] = target: gp41 of HIV-1 strain DJ258 (HIV-1 strain DJ258); assay: cell-based or functional assay
# [7] = target: T2, gp41 of the envelope glycoprotein of …; assay: cell-based or functional assay; remark: listed apart in the source
# gp41 of HIV-1 strain HC4 = gp41 of HIV-1 strain HC4 (HIV-1 strain HC4); assay: cell-based or functional assay
# [8] = target: gp41 of HIV-1 strain CC 1/85 (HIV-1 strain CC 1/85); assay: cell-based or functional assay
# [9] = target: gp41 of HIV-1 strain NL4-3 (HIV-1 strain NL4-3); assay: cell-based or functional assay
# NHR α-peptide 1 [10] = target: T3, NHR α-peptide 1 (HIV, N-terminus acetyl-capped); assay: CD at 222 nm, thermal unfolding, 20 µM total peptide in PBS
# T3 construct: Forms a six-helix bundle (three NHR and three CHR helices) when mixed with CHR peptides; also called NHR peptide 1
# NHR α-peptide 1 [11] = target: T3, NHR α-peptide 1; assay: as above; remark: listed apart in the source
# [12] = target: the molecule itself; assay: crystal structure of 10 alone (self-assembly)
Binder,Ki (gp41-5 [1]) [nM],Ki (gp41-5 [3]) [nM],Cell-Cell Fusion IC50 [5] [nM],"Inhibition of HIV-1 infectivity, IC50 (nM), DJ258 [6] [nM]",Cell-cell fusion inhibition IC50 [7] [nM],"Inhibition of HIV-1 infectivity, IC50 (nM), HC4 (gp41 of HIV-1 strain HC4) [nM]","Inhibition of HIV-1 infectivity, IC50 (nM), CC 1/85 [8] [nM]","Inhibition of HIV-1 infectivity, IC50 (nM), NL4-3 [9] [nM]","Tm,app of the 1:1 NHR + CHR mixture (NHR α-peptide 1 [10]) [° C.]",also measured
"Ac-TTWEAWDRAIAEYA[ACPC]RIE[ACPC]LI[β3hR]AAQ[β3hE]QQ[β3hE]KNE[ACPC]AL[β3hR]EL (also: other residues as in 6, also called oligomer 7) [α/β-peptide 7]",0.4,0.4,–,–,–,–,–,–,–,fold higher affinity relative to 6 (gp41-5 [2]): > 30 fold; fold improvement in binding relative to 6 (gp41-5 [2]): 40 fold
Ac-[β3hR]TWE[β3hE]WD[β3hR]AIA[β3hE]YA[β3hR]RIE[β3hE]LI[β3hR]AAQ[β3hE]QQ[β3hR]KNE[β3hE]AL[β3hR]EL-NH2 (also called compound 17; peptide 17) [α/β foldamer 17],–,–,–,–,–,–,–,–,–,Ki (gp41-5 [4]): 11 nM
Ac-TTWEAWDRAIAEYA[β3hA]RIE[β3hA]LI[β3hR]AAQ[β3hE]QQ[β3hE]KNE[β3hA]AL[β3hR]EL (also called (α+α/β)-peptide 6; oligomer 6) [α/β-peptide 6],15,15,–,–,–,–,–,–,–,–
Ac-[β3hT]TWE[β3hA]WD[β3hR]AIA[β3hE]YA[β3hA]RIE[β3hA]LI[β3hR]AAQ[β3hE]QQ[β3hE]KNE[β3hA]AL[β3hR]EL (also called oligomer 4) [α/β-peptide 4],3800,3800,390,960,390,590,1300,700,–,fold weaker binding than α-peptide 3 (gp41-5 [2]): > 10000 fold
"Ac-[β3hR]TWE[β3hE]WD[β3hR]AIA[β3hE]YA[ACPC]RIE[ACPC]LI[APC]AAQ[ACPC]QQ[APC]KNE[ACPC]AL[APC]EL-NH2 (not fully specified, also called compound 16; peptide 16) [α/β foldamer 16]",–,–,–,–,–,–,–,–,–,Ki (gp41-5 [4]): 3 nM
"Ac-TTWEAWDRAIAEYA[ACPC]RIE[ACPC]LI[APC]AAQ[β3hE]QQ[β3hE]KNE[ACPC]AL[APC]EL-NH2 (not fully specified, Made from 7 by replacing two β3-hArg residues with APC) [chimeric CHR α/β-peptide 8]",–,–,–,–,–,–,–,–,65,–
Ac-A[β3hE]YA[ACPC]RIE[ACPC]LI[APC]AAQ[β3hE]QQ[β3hE]KNE[ACPC]AL[APC]EL (also called oligomer 11; truncated α/β-peptide 11) [α/β-peptide 11],–,> 10000,–,–,–,–,–,–,–,–
Ac-TTWEAWDRAIAEYAARIEALI[β3hR]AAQ[β3hE]QQ[β3hE]KNE[β3hA]AL[β3hR]EL (Chimera of α-peptide 3 and α/β-peptide 4; also called oligomer 5) [(α+α/β)-peptide 5],0.2,< 0.2,7,280,7,55,270,10,67,Tm of the 1:1 NHR + CHR mixture (NHR α-peptide 1 [11]): 69 ° C.
"Ac-[β3hT]TWE[ACPC]WD[β3hR]AIA[β3hE]YA[ACPC]RIE[ACPC]LI[β3hR]AAQ[β3hE]QQ[β3hE]KNE[ACPC]AL[β3hR]EL (not fully specified, to be checked against the listing) [α/β-peptide 9]",83,83,–,–,–,–,–,–,–,fold higher affinity than 4 (gp41-5 [2]): 50 fold; fold improvement in Ki relative to 4 (gp41-5 [2]): > 45 fold
Ac-TTWEAWDRAIAEYAARIEALIRAAQEQQEKNEAALREL (also called T-2635; CHR α-peptide 3) [α-peptide 3],0.2,< 0.2,9,58,9,27,140,5,77,Tm of the 1:1 NHR + CHR mixture (NHR α-peptide 1 [11]): 77 ° C.
Ac-[β3hT]TWE[ACPC]WD[APC]AIA[β3hE]YA[ACPC]RIE[ACPC]LI[APC]AAQ[β3hE]QQ[β3hE]KNE[ACPC]AL[APC]EL-NH2 (Made from 9 by replacing the three β3-hArg residues with APC; also called foldamer 10) [α/β-peptide 10],9,9,5,110,5,59,180,28,55,binding result [12]: binds; fold difference in affinity against 5 (gp41-5 [2]): > 45 fold; fold enhanced binding relative to 4 (gp41-5 [2]): ~380 fold; fold improvement in Ki relative to 9 (gp41-5 [2]): ~10 fold; Tm of the 1:1 NHR + CHR mixture (NHR α-peptide 1 [11]): 55 ° C.
